In publication PMC3984077:

Biological target: HasSCTD, the last 78 residues of the antisigma factor HasS of Serratia marcescens (Serratia marcescens) (UniProt Q79AD3)
Assay: NMR titration; 1H-15N HSQC, one partner 15N-labelled in turn, peak intensities before and after adding the unlabelled partner; 250 µM HasSCTD with 200, 400 or 800 µM signaling domain, or 100 µM 15N signaling domain with 250 µM HasSCTD; control with 400 µM periplasmic domain; sodium phosphate pH 7, 50 mM NaCl, 0.05% Zw, 15% D2O; 20°C

signaling domain of the TonB-dependent outer membrane transporter HasR (from UniProt Q79AD2) (domain or fragment)
reduction of the overall HSQC peak intensity of 15N HasSCTD: 35%
